This passage reports GLP1cAMPma (3693) [EC50 (nM)] Mean Value results from US9012398B2.

In the assay the target is human GLP-1 receptor (human) (UniProt P43220).
On to “N--ε^20-{2-(2-(2-(2-[2-(2-(4-(hexadecanoylamino)-4- carboxybutyrylamino)ethoxy)ethoxy]acetyl)ethoxy)ethoxy)acetyl)}- [Leu^14,Gln^27,Gln^28,Lys^20]Exendin-4-amide (from UniProt P26349) (peptide)”, for which the GLP1cAMPma (3693) [EC50 (nM)] Mean Value is 0.093 nM. With “N-epsilon20-{2-(2-(2-(2-[2-(2-(4-(hexadecanoylamino)-4-(S)- carboxybutyrylamino)ethoxy)ethoxy]acetyl)ethoxy)ethoxy)acetyl)}- [[Aib2,Lys20,Gln28]Exendin-4-amide (from UniProt P26349) (peptide)”, the GLP1cAMPma (3693) [EC50 (nM)] Mean Value was 0.0095 nM. The result for “N-ε^12-(2-(2-(2-(2-(2-(2-(2-(2-(2-Octadecanoylamino) ethoxy)ethoxy)acetylamino)ethoxy)ethoxy)acetylamino)ethoxy)ethoxy)acetyl)) [Lys^12,Leu^14,Arg^27,Gln^28]Exendin-4-(1-39)-amide (from UniProt P26349) (peptide)” reads 0.0035 nM; that for “N-ε^12-[2-(2-[2-(2-[2-(2-[4-(17-carboxyheptadecanoylamino)-4(S)- carboxybutyrylamino]ethoxy)ethoxy]acetylamino)ethoxy]ethoxy)acetyl] [Lys^12,Leu^14,Arg^27,Gln^28]Exendin-4-(1-39)-amide (from UniProt P26349) (peptide)”, 0.22 nM; that for “N-ε^12-[2-(2-[2-(2-[2-(2-[4-(hexadecanoylamino)-4(S)- carboxybutyrylamino]ethoxy)ethoxy]acetylamino)ethoxy]ethoxy)acetyl] [Lys^12,Leu^14,Arg^27,Gln^28]Exendin-4-(1-39)-amide (from UniProt P26349) (peptide)”, 0.006 nM. The result for “N-ε^14-(2-(2-2-(2-(2-(4-(hexadecanoylamino)-4-(S)- carboxybytyrylamino)ethoxy)ethoxy)acetylamino)ethoxy)ethoxy)acetyl [Arg^12,Lys^l4,Val^27,Arg^28]Exendin-4-(1-39)-amide (from UniProt P26349) (peptide)” reads 0.037 nM; that for “N-ε^14-(2-(2-(2-(2-(2-(2-(2-(2-(2- (Octadecanoylamino)ethoxy)ethoxy)acetylamino)ethoxy)ethoxy)acetyl- amino)ethoxy)ethoxy)acetyl)[Arg^12,Lys^14,Val^27,Arg^28]Exendin-4-(1-39)- amide (from UniProt P26349) (peptide)”, 0.088 nM.

“N-ε^14-(2-(2-(2-(2-(2-(2-(4-(Octadecanoylamino)-4(S)- carboxybutyrylamino)ethoxy)ethoxy)acetylamino)ethoxy)ethoxy)acetyl [Arg^12,Lys^14,Val^27,Arg^28]Exendin-4-(1-39)-amide (from UniProt P26349) (peptide)” returned a GLP1cAMPma (3693) [EC50 (nM)] Mean Value of 0.059 nM. Next, “N-ε^14-(2-(2-(2-(2-(2-(2-(17- carboxyheptadecanoylamino)ethoxy)ethoxy)acetylamino)ethoxy) ethoxy)acetyl[Arg^12,Lys^14,Val^27,Arg^28]Exendin-4-(1-39)-amide (from UniProt P26349) (peptide)”: 3.65 nM. On to “N-ε^20-2-(2-(2-(2-(2-(2-(4-(Hexadecanoylamino)-4(S)- carboxybutyrylamino)ethoxy)ethoxy)acetylamino)ethoxy) ethoxy)acetyl[Arg^12,27,Leu^14,Lys^20,Gln^28]Exendin-4-(1-39)-peptide amide (from UniProt P26349)”, for which the GLP1cAMPma (3693) [EC50 (nM)] Mean Value is 0.033 nM. Next, “N-ε^20-(2-(2-(2-(2-(2-(2-(2-(2-(2- (Octadecanoylamino)ethoxy)ethoxy)acetylamino)ethoxy)ethoxy)acetyl- amino)ethoxy)ethoxy)acety))[Arg^12,27,28,Leu^14,Lys^20 Exendin-4(1- 39)amide (from UniProt P26349) (peptide)”: 0.007 nM; “N-ε^20-(2-(2-(2-(2-(2-(2-(17- carboxyheptadecanoylamino)ethoxy)ethoxy)acetylamino)ethoxy) ethoxy)acetyl)[Arg12,Leu^14,Arg^27,Gln^28,Lys^20]Exendin-4 (1-39)amide (from UniProt P26349) (peptide)”: 5.45 nM. Next, “N-ε^20-(2-(2-(2-(2-(2-(2-(17- carboxyheptadecanoylamino)ethoxy)ethoxy)acetylamino)ethoxy) ethoxy)acetyl[Aib^2,Lys^20,Ala^29,Ser(O-benzyl)^39]Exendin-4-(1-39)-amide (from UniProt P26349) (peptide)”: 0.23 nM; “N-ε^20-[2-(2-[2-(2-[2-(2-[4-(17-Carboxyheptadecanoylamino)-4(S)- carboxybutyrylamino]ethoxy)ethoxy]acetylamino)ethoxy]ethoxy)acetyl] [Aib^2;Gln^28,Lys^20]exendin-4(1-39)amide (from UniProt P26349) (peptide)”: 0.1 nM. In turn, “N-ε^20-[2-(2-[2-(2-[2-(2-[4-(17-Carboxyheptadecanoylamino)-4(S)- carboxybutyrylamino]ethoxy)ethoxy]acetylamino)ethoxy]ethoxy)acetyl] [Imidazoylpropionyl^1;Gin^28,Lys^20]exendin-4(1-39)amide (from UniProt P26349) (peptide)” showed a GLP1cAMPma (3693) [EC50 (nM)] Mean Value of 2.18 nM. The result for “N-ε^20-[2-(2-[2-(2-[2-(2-[4-(hexadecanoylamino)-4(S)- carboxybutyrylamino]ethoxy)ethoxy]acetylamino)ethoxy]ethoxy)acetyl] [Imidazoylpropionyl^1,Lys^20,Gln^28]Exendin-4-(1-39)-amide (from UniProt P26349) (peptide)” reads 0.042 nM; that for “N-ε^20-[2-(2-[2-(2-[2-(2-[4-(octadecanoylamino)-4(S)- carboxybutyrylamino]ethoxy)ethoxy]acetylamino)ethoxy]ethoxy)acetyl] [Aib^2,Lys^20,Ala^29,Ser(O-benzyl)^39]Exendin-4-(1-39)-amide (from UniProt P26349) (peptide)”, 0.006 nM; that for “N-ε^20-[2-(2-[2-(2-[2-(2-[4-Octadecanoylamino-4(S)- carboxybutyrylamino]ethoxy)ethoxy]acetylamino)ethoxy]ethoxy)acetyl] [Arg^12,27,Gln^28,Leu^14,Lys^20 Exendin-4(1-39)amide (from UniProt P26349) (peptide)”, 0.044 nM.

Consider “N-ε^20-[2-(2-[2-(2-[2-(2-[4-hexadecanoylamino-4(S)- carboxybutyrylamino]ethoxy)ethoxy]acetylamino)ethoxy]ethoxy)acetyl] [Arg^12,27,28,Leu^14,Lys^20]Exendin-4(1-39)amide (from UniProt P26349) (peptide)”, for which the GLP1cAMPma (3693) [EC50 (nM)] Mean Value was 0.027 nM. Next, “N-ε^20-{2-(2-(2-(2-[2-(2-(4-(hexadecanoylamino)-4- carboxybutyrylamino)ethoxy)ethoxy]acetyl)ethoxy)ethoxy)acetyl)}- [Gln^12,27,Leu^14,Lys^20,Gln^28]Exendin-4-amide (from UniProt P26349) (peptide)”: 0.027 nM.
